# Measured values taken from the supplement of paper PMC9732359.
# ± gives the uncertainty stated by the source.
# Assay: protein stability index of a GFP-peptide fusion (yeast GPS) (PSI 1-4); higher = more stable; sorted into four equal gates, so the index is relative within each strain
# How it was run: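 Yeast carrying a pooled library were grown to mid-log phase in leucine-free medium. Each library plasmid expresses Cherry and has a tiled 17-residue yeast protein peptide fused downstream of GFP. Cells were sorted into four equal gates by GFP/Cherry ratio, and plasmids from each gate were PCR-amplified, Illumina-sequenced and assigned to strains by barcode. Summing, across gates, the read frequency times the gate number gave each peptide's protein stability index.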
sequence,measurement,setting,value
TLLWNKNDKLIKIEDFV [SNF5],protein stability index,doa10∆,1.8 ± 0.081
same,protein stability index,pdr5∆,1.74 ± 0.066
same,protein stability index,san1∆,1.55 ± 0.095
same,protein stability index,ubr1∆,1.83 ± 0.036
KLTQKLVTAGVAAAGIT [CYT1],protein stability index,doa10∆,2.1 ± 0.083
same,protein stability index,pdr5∆,2.21 ± 0.086
same,protein stability index,san1∆,2.56 ± 0.065
same,protein stability index,ubr1∆,2.11 ± 0.052
RGQQVENPTDNFIIWIN [GRR1],protein stability index,doa10∆,2.08 ± 0.066
same,protein stability index,pdr5∆,2.35 ± 0.082
same,protein stability index,san1∆,2.59 ± 0.063
same,protein stability index,ubr1∆,2.61 ± 0.061
VGGHNVTIREQINIMPS [SIR3],protein stability index,doa10∆,2.91 ± 0.069
same,protein stability index,pdr5∆,2.8 ± 0.066
same,protein stability index,san1∆,2.71 ± 0.071
same,protein stability index,ubr1∆,2.94 ± 0.067
YHSAGGRDKHALSLLYH [SSN3],protein stability index,doa10∆,3.12 ± 0.082
same,protein stability index,pdr5∆,3.02 ± 0.066
same,protein stability index,san1∆,3.19 ± 0.059
same,protein stability index,ubr1∆,3.32 ± 0.066
KGKTPKNAAESSYMGKH [PRP28],protein stability index,doa10∆,3.18 ± 0.12
same,protein stability index,pdr5∆,3.22 ± 0.14
same,protein stability index,san1∆,2.86 ± 0.16
same,protein stability index,ubr1∆,3.33 ± 0.085
IWPAEDALRRGMLAMAS [MED4],protein stability index,doa10∆,3.12 ± 0.11
same,protein stability index,pdr5∆,3.24 ± 0.099
same,protein stability index,san1∆,3.05 ± 0.075
same,protein stability index,ubr1∆,3.27 ± 0.086
PSVAAEYVYFFNNTSVI [RPC40],protein stability index,doa10∆,2.09 ± 0.056
same,protein stability index,pdr5∆,1.48 ± 0.057
same,protein stability index,san1∆,1.54 ± 0.088
same,protein stability index,ubr1∆,1.79 ± 0.039
DCNSALDQLLVLEKKTR [RPN5],protein stability index,doa10∆,2.31 ± 0.068
same,protein stability index,pdr5∆,2.31 ± 0.1
same,protein stability index,san1∆,2.22 ± 0.058
same,protein stability index,ubr1∆,2.44 ± 0.083
TIERSLIEEEVEQDEGQ [YCS4],protein stability index,doa10∆,3.36 ± 0.24
same,protein stability index,pdr5∆,3.27 ± 0.17
same,protein stability index,san1∆,3.28 ± 0.084
same,protein stability index,ubr1∆,3.5 ± 0.17
VTIIEPKEEEPILAPSV [RPS3],protein stability index,doa10∆,3.09 ± 0.13
same,protein stability index,pdr5∆,2.59 ± 0.22
same,protein stability index,san1∆,3.01 ± 0.14
same,protein stability index,ubr1∆,2.67 ± 0.13
RSKSSHKNERRVLEIQT [SKI6],protein stability index,doa10∆,3.22 ± 0.097
same,protein stability index,pdr5∆,3.35 ± 0.087
same,protein stability index,san1∆,3.23 ± 0.084
same,protein stability index,ubr1∆,3.37 ± 0.061
THDGRTIRYPDPNIKVN [RPS4A],protein stability index,doa10∆,1.52 ± 0.13
NMGSLLGLCLVIQIVTG [COB],protein stability index,doa10∆,2.67 ± 0.06
same,protein stability index,pdr5∆,2.58 ± 0.053
same,protein stability index,san1∆,2.59 ± 0.061
same,protein stability index,ubr1∆,3 ± 0.034
RIMEKSVILSVISMFVL [YML031W/NDC1],protein stability index,doa10∆,1.31 ± 0.14
same,protein stability index,pdr5∆,1.44 ± 0.1
same,protein stability index,san1∆,1.17 ± 0.11
same,protein stability index,ubr1∆,1.12 ± 0.049
FLQGESPFSITFSVYHE [YMR129W/POM152],protein stability index,doa10∆,2.4 ± 0.073
same,protein stability index,pdr5∆,2.08 ± 0.056
same,protein stability index,san1∆,2.64 ± 0.047
same,protein stability index,ubr1∆,2.36 ± 0.052
KISFNLRLKLFLYEILS [SRB8],protein stability index,doa10∆,1.22 ± 0.066
same,protein stability index,pdr5∆,1.26 ± 0.063
same,protein stability index,san1∆,1.24 ± 0.092
same,protein stability index,ubr1∆,1.17 ± 0.048
DIWQSRDQGNDSLNDDL [YIL149C/MLP2],protein stability index,doa10∆,3.53 ± 0.28
same,protein stability index,san1∆,3.65 ± 0.17
same,protein stability index,ubr1∆,3.76 ± 0.14
KRKVLELKKKRKIKRLE [SRP72],protein stability index,doa10∆,3.24 ± 0.077
same,protein stability index,pdr5∆,3.2 ± 0.095
same,protein stability index,san1∆,3.38 ± 0.1
same,protein stability index,ubr1∆,3.29 ± 0.058
NIALVSKLRNNIRSQLL [SRP54],protein stability index,doa10∆,2.13 ± 0.069
same,protein stability index,pdr5∆,2.56 ± 0.058
same,protein stability index,san1∆,2.5 ± 0.053
same,protein stability index,ubr1∆,2.61 ± 0.065
EDIIKRTSPIDNVSNTH [NUT2],protein stability index,doa10∆,2.87 ± 0.062
same,protein stability index,pdr5∆,2.88 ± 0.06
same,protein stability index,san1∆,3.01 ± 0.083
same,protein stability index,ubr1∆,3.04 ± 0.049
LKQNAIRARIPFYGSYT [SRP54],protein stability index,doa10∆,2.82 ± 0.077
same,protein stability index,pdr5∆,2.8 ± 0.063
same,protein stability index,san1∆,2.5 ± 0.087
same,protein stability index,ubr1∆,2.89 ± 0.062
GKAATAKETHTKPSETP [YOR098C/NUP1],protein stability index,doa10∆,2.57 ± 0.098
same,protein stability index,pdr5∆,2.84 ± 0.094
same,protein stability index,san1∆,2.76 ± 0.077
same,protein stability index,ubr1∆,2.37 ± 0.091
KSCEPVSISTSVKPHVV [SIR4],protein stability index,doa10∆,2.6 ± 0.069
same,protein stability index,pdr5∆,2.97 ± 0.077
same,protein stability index,san1∆,2.28 ± 0.11
same,protein stability index,ubr1∆,2.42 ± 0.045
RIVNHKTKLWGFKWLNK [LIN1],protein stability index,doa10∆,2.87 ± 0.13
same,protein stability index,pdr5∆,3.1 ± 0.13
same,protein stability index,san1∆,2.87 ± 0.3
same,protein stability index,ubr1∆,2.88 ± 0.091
EGNQGSLQEDVSFDFNG [MED8],protein stability index,doa10∆,3.17 ± 0.12
same,protein stability index,pdr5∆,3.41 ± 0.085
same,protein stability index,san1∆,3.23 ± 0.062
same,protein stability index,ubr1∆,3.2 ± 0.07
VLITDHIEKLENEFVVL [CDC53],protein stability index,doa10∆,3.05 ± 0.061
same,protein stability index,pdr5∆,2.61 ± 0.055
same,protein stability index,san1∆,2.1 ± 0.087
same,protein stability index,ubr1∆,2.58 ± 0.054
QQQNASSKLYQMQQQQQ [GAL11],protein stability index,doa10∆,1.76 ± 0.091
same,protein stability index,pdr5∆,1.66 ± 0.073
same,protein stability index,san1∆,1.5 ± 0.13
same,protein stability index,ubr1∆,1.78 ± 0.064
SVKLKQKRLEAGALNLA [DIS3],protein stability index,doa10∆,3.42 ± 0.13
same,protein stability index,pdr5∆,3.11 ± 0.12
same,protein stability index,san1∆,3.36 ± 0.081
same,protein stability index,ubr1∆,3 ± 0.071
IHSLVKQRLDLARQVKL [YIL149C/MLP2],protein stability index,doa10∆,2.69 ± 0.064
same,protein stability index,pdr5∆,2.6 ± 0.061
same,protein stability index,san1∆,3.03 ± 0.064
same,protein stability index,ubr1∆,2.83 ± 0.047
SLGIAQPKGVILYGPPG [RPT6],protein stability index,doa10∆,2.71 ± 0.061
same,protein stability index,pdr5∆,2.89 ± 0.072
same,protein stability index,san1∆,2.77 ± 0.089
same,protein stability index,ubr1∆,2.91 ± 0.077
FRKKRKFELGRQPANTK [RPS8A],protein stability index,doa10∆,2.88 ± 0.063
same,protein stability index,pdr5∆,3.12 ± 0.066
same,protein stability index,san1∆,3.13 ± 0.082
same,protein stability index,ubr1∆,3.16 ± 0.065
IEPVTKVSSLKMFIQRI [YCS4],protein stability index,doa10∆,2.91 ± 0.064
same,protein stability index,pdr5∆,2.9 ± 0.065
same,protein stability index,san1∆,3.17 ± 0.048
same,protein stability index,ubr1∆,3.31 ± 0.065
ASKGIDRLSLQDRQQLL [ECM29],protein stability index,doa10∆,3.08 ± 0.083
same,protein stability index,pdr5∆,3.11 ± 0.07
same,protein stability index,san1∆,3.19 ± 0.085
same,protein stability index,ubr1∆,3.21 ± 0.056
HIHDLEKFSPKSFISKL [SRP54],protein stability index,doa10∆,1.81 ± 0.044
same,protein stability index,pdr5∆,2.12 ± 0.042
same,protein stability index,san1∆,2.14 ± 0.064
same,protein stability index,ubr1∆,2.36 ± 0.028
HAYNITFNNQDKGLLPY [RPO31],protein stability index,doa10∆,2.64 ± 0.09
same,protein stability index,pdr5∆,3.09 ± 0.2
same,protein stability index,san1∆,1.76 ± 0.098
same,protein stability index,ubr1∆,2.91 ± 0.057
ITYALSGYVRSRGESDD [RPS21B],protein stability index,doa10∆,1.74 ± 0.075
same,protein stability index,pdr5∆,2.81 ± 0.11
same,protein stability index,san1∆,2.44 ± 0.092
same,protein stability index,ubr1∆,2.84 ± 0.058
LMRTFLYTLAQETEGTN [SIR3],protein stability index,doa10∆,2.63 ± 0.12
same,protein stability index,pdr5∆,2.63 ± 0.098
same,protein stability index,ubr1∆,2.35 ± 0.11
LKRLAWQYIVIDEAHRI [ISW2],protein stability index,doa10∆,1.77 ± 0.077
same,protein stability index,pdr5∆,1.78 ± 0.1
same,protein stability index,san1∆,2.45 ± 0.077
same,protein stability index,ubr1∆,1.13 ± 0.09
DGKEDVEKGTPLGKILL [SME1],protein stability index,doa10∆,3.57 ± 0.071
same,protein stability index,pdr5∆,3.44 ± 0.09
same,protein stability index,san1∆,3.53 ± 0.053
same,protein stability index,ubr1∆,3.56 ± 0.075
